Reference: US12099068B2, “Biomarkers for graft-versus-host disease” (Incyte Corporation, priority 2018, dated 2024)

tested on: plasma proteins; assay: Plasma proteins modulated between baseline and day 28 in responders (CR, VGPR, PR; n = 19), Example 6 (Table 13); format: in vivo, human; details: plasma protein (OLINK NPX); responders (CR, VGPR, PR; n = 19); itacitinib 200 mg or 300 mg QD with corticosteroids; day 28 vs baseline
Outline: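 Plasma at baseline/screening and day 28 profiled for >1000 proteins by OLINK proximity extension assay, reported as NPX (log2). Steroid-naive and steroid-refractory patients pooled. Paired and unpaired t tests, ANOVA and Pearson correlation applied; significance at P<0.05.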

| Molecule | Fold Change, Increased Expression from Baseline to Day 28 | Fold Change, Decreased Expression from Baseline to Day 28 |
| --- | --- | --- |
| ITGB5 (protein, UniProt P18084 24-799, looked up) Integrin beta-5: GLNICTSGSATSCEECLLIHPKCAWCSKEDFGSPRSITSRCDLRANLVKNGCGGEIESPASSFHVLRSLPLSSKGSGSAGWDVIQMTPQEIAVNLRPGDKTTFQLQVRQVEDYPVDLYYLMDLSLSMKDDLDNIRSLGTKLAEEMRKLTSNFRLGFGSFVDKDISPFSYTAPRYQTNPCIGYKLFPNCVPSFGFRHLLPLTDRVDSFNEEVRKQRVSRNRDAPEGGFDAVLQAAVCKEKIGWRKDALHLLVFTTDDVPHIALDGKLGGLVQPHDGQCHLNEANEYTASNQMDYPSLALLGEKLAENNINLIFAVTKNHYMLYKNFTALIPGTTVEILDGDSKNIIQLIINAYNSIRSKVELSVWDQPEDLNLFFTATCQDGVSYPGQRKCEGLKIGDTASFEVSLEARSCPSRHTEHVFALRPVGFRDSLEVGVTYNCTCGCSVGLEPNSARCNGSGTYVCGLCECSPGYLGTRCECQDGENQSVYQNLCREAEGKPLCSGRGDCSCNQCSCFESEFGKIYGPFCECDNFSCARNKGVLCSGHGECHCGECKCHAGYIGDNCNCSTDISTCRGRDGQICSERGHCLCGQCQCTEPGAFGEMCEKCPTCPDACSTKRDCVECLLLHSGKPDNQTCHSLCRDEVITWVDTIVKDDQEAVLCFYKTAKDCVMMFTYVELPSGKSNLTVLREPECGNTPNAMTILLAVVGSILLVGLALLAIWKLLVTIHDRREFAKFQSERSRARYEMASNPLYRKPISTHTVDFTFNKFNKSYNGTVD | 1.229 |  |
| FCGR2A (protein, UniProt P12318 34-317, looked up) Low affinity immunoglobulin …: QAAAPPKAVLKLEPPWINVLQEDSVTLTCQGARSPESDSIQWFHNGNLIPTHTQPSYRFKANNNDSGEYTCQTGQTSLSDPVHLTVLSEWLVLQTPHLEFQEGETIMLRCHSWKDKPLVKVTFFQNGKSQKFSHLDPTFSIPQANHSHSGDYHCTGNIGYTLFSSKPVTITVQVPSMGSSSPMGIIVAVVIATAVAAIVAAVVALIYCRKKRISANSTDPVKAAQFEPPGRQMIAIRKRQLEETNNDYETADGGYMTLNPRAPTDDDKNIYLTLPPNDHVNSNN |  | −1.5278 |
| CD93 (protein, UniProt Q9NPY3 22-652, looked up) Complement component C1q …: TGADTEAVVCVGTACYTAHSGKLSAAEAQNHCNQNGGNLATVKSKEEAQHVQRVLAQLLRREAALTARMSKFWIGLQREKGKCLDPSLPLKGFSWVGGGEDTPYSNWHKELRNSCISKRCVSLLLDLSQPLLPSRLPKWSEGPCGSPGSPGSNIEGFVCKFSFKGMCRPLALGGPGQVTYTTPFQTTSSSLEAVPFASAANVACGEGDKDETQSHYFLCKEKAPDVFDWGSSGPLCVSPKYGCNFNNGGCHQDCFEGGDGSFLCGCRPGFRLLDDLVTCASRNPCSSSPCRGGATCVLGPHGKNYTCRCPQGYQLDSSQLDCVDVDECQDSPCAQECVNTPGGFRCECWVGYEPGGPGEGACQDVDECALGRSPCAQGCTNTDGSFHCSCEEGYVLAGEDGTQCQDVDECVGPGGPLCDSLCFNTQGSFHCGCLPGWVLAPNGVSCTMGPVSLGPPSGPPDEEDKGEKEGSTVPRAATASPTRGPEGTPKATPTTSRPSLSSDAPITSAPLKMLAPSGSPGVWREPSIHHATAASGPQEPAGGDSSVATQNNDGTDGQKLLLFYILGTVVAILLLLALALGLLVYRKRRAKREEKKEKKPQNAADSYSWVPERAESRAMENQYSPTPGTDC |  | −1.3029 |
| GPNMB (protein, UniProt Q14956 23-572, looked up) Transmembrane glycoprotein NMB: KRFHDVLGNERPSAYMREHNQLNGWSSDENDWNEKLYPVWKRGDMRWKNSWKGGRVQAVLTSDSPALVGSNITFAVNLIFPRCQKEDANGNIVYEKNCRNEAGLSADPYVYNWTAWSEDSDGENGTGQSHHNVFPDGKPFPHHPGWRRWNFIYVFHTLGQYFQKLGRCSVRVSVNTANVTLGPQLMEVTVYRRHGRAYVPIAQVKDVYVVTDQIPVFVTMFQKNDRNSSDETFLKDLPIMFDVLIHDPSHFLNYSTINYKWSFGDNTGLFVSTNHTVNHTYVLNGTFSLNLTVKAAAPGPCPPPPPPPRPSKPTPSLATTLKSYDSNTPGPAGDNPLELSRIPDENCQINRYGHFQATITIVEGILEVNIIQMTDVLMPVPWPESSLIDFVVTCQGSIPTEVCTIISDPTCEITQNTVCSPVDVDEMCLLTVRRTFNGSGTYCVNLTLGDDTSLALTSTLISVPDRDPASPLRMANSALISVGCLAIFVTVISLLVYKKHKEYNPIENSPGNVVRSKGLSVFLNRAKAVFFPGNQEKDPLLKNQEFKGVS | 1.2117 |  |
| GT (protein, UniProt P51161 2-128, looked up) Gastrotropin: AFTGKFEMESEKNYDEFMKLLGISSDVIEKARNFKIVTEVQQDGQDFTWSQHYSGGHTMTNKFTVGKESNIQTMGGKTFKATVQMEGGKLVVNFPNYHQTSEIVGDKLVEVSTIGGVTYERVSKRLA | 1.8699 |  |
| Ep-CAM (protein, UniProt P16422 24-314, looked up) Epithelial cell adhesion …: QEECVCENYKLAVNCFVNNNRQCQCTSVGAQNTVICSKLAAKCLVMKAEMNGSKLGRRAKPEGALQNNDGLYDPDCDESGLFKAKQCNGTSMCWCVNTAGVRRTDKDTEITCSERVRTYWIIIELKHKAREKPYDSKSLRTALQKEITTRYQLDPKFITSILYENNVITIDLVQNSSQKTQNDVDIADVAYYFEKDVKGESLFHSKKMDLTVNGEQLDLDPGQTLIYYVDEKAPEFSMQGLKAGVIAVIVVVVIAVVAGIVVLVISRKKRMAKYEKAEIKEMGEMHRELNA | 1.403 |  |
| NBN (protein, UniProt O60934 1-754, looked up) Nibrin: MWKLLPAAGPAGGEPYRLLTGVEYVVGRKNCAILIENDQSISRNHAVLTANFSVTNLSQTDEIPVLTLKDNSKYGTFVNEEKMQNGFSRTLKSGDGITFGVFGSKFRIEYEPLVACSSCLDVSGKTALNQAILQLGGFTVNNWTEECTHLVMVSVKVTIKTICALICGRPIVKPEYFTEFLKAVESKKQPPQIESFYPPLDEPSIGSKNVDLSGRQERKQIFKGKTFIFLNAKQHKKLSSAVVFGGGEARLITEENEEEHNFFLAPGTCVVDTGITNSQTLIPDCQKKWIQSIMDMLQRQGLRPIPEAEIGLAVIFMTTKNYCDPQGHPSTGLKTTTPGPSLSQGVSVDEKLMPSAPVNTTTYVADTESEQADTWDLSERPKEIKVSKMEQKFRMLSQDAPTVKESCKTSSNNNSMVSNTLAKMRIPNYQLSPTKLPSINKSKDRASQQQQTNSIRNYFQPSTKKRERDEENQEMSSCKSARIETSCSLLEQTQPATPSLWKNKEQHLSENEPVDTNSDNNLFTDTDLKSIVKNSASKSHAAEKLRSNKKREMDDVAIEDEVLEQLFKDTKPELEIDVKVQKQEEDVNVRKRPRMDIETNDTFSDEAVPESSKISQENEIGKKRELKEDSLWSAKEISNNDKLQDDSEMLPKKLLLTEFRSLVIKNSTSRNPSGINDDYGQLKNFKKFKKVTYPGAGKLPHIIGGSDLIAHHARKNTELEEWLRQEMEVQNQHAKEESLADDLFRYNPYLKRRR |  | −1.5879 |
| IRF9 (protein, UniProt Q00978 1-393, looked up) Interferon regulatory factor 9: MASGRARCTRKLRNWVVEQVESGQFPGVCWDDTAKTMFRIPWKHAGKQDFREDQDAAFFKAWAIFKGKYKEGDTGGPAVWKTRLRCALNKSSEFKEVPERGRMDVAEPYKVYQLLPPGIVSGQPGTQKVPSKRQHSSVSSERKEEEDAMQNCTLSPSVLQDSLNNEEEGASGGAVHSDIGSSSSSSSPEPQEVTDTTEAPFQGDQRSLEFLLPPEPDYSLLLTFIYNGRVVGEAQVQSLDCRLVAEPSGSESSMEQVLFPKPGPLEPTQRLLSQLERGILVASNPRGLFVQRLCPIPISWNAPQAPPGPGPHLLPSNECVELFRTAYFCRDLVRYFQGLGPPPKFQVTLNFWEESHGSSHTPQNLITVKMEQAFARYLLEQTPEQQAAILSLV |  | −1.4384 |
